Measured values reported in paper PMC4027176, “Modulating TRAP-mediated transcription termination by AT during transcription of the leader region of the Bacillus subtilis trp operon” (Nucleic Acids Research, 2014).
Each block holds one molecule with its values, some of them ahead of it.

B2: His-tagged N20C (Asn20 replaced with Cys) TRAP (natural protein, B. subtilis, UniProt P19466 1-75, looked up)
chain: MNQKHSSDFVVIKAVEDGVCVIGLTRGTDTKFHHSEKLDKGEVIIAQFTEHTSAIKVRGEALIQTAYGEMKSEKK
notes: TRAP of Bacillus subtilis (mtrB), 75 amino acid subunit, with Asn20 replaced by Cys; six histidine residues at the carboxy terminus of each subunit; Cross-linking was done in the presence of 1 mM tryptophan; also called N20C TRAP; N20C TRAP 11mer; source: purified using Ni-agarose; not shown: His6, C-terminal, kept; copies: 11

How the values were obtained:
[1] = molecular target: T1, TRAP (trp RNA binding Attenuation Protein), WT (Bacillus subtilis) (UniProt P19466); assay: pull-down of blocked TEC, immunoblot; conditions: Filter binding: 16 mM Tris pH 8.0, 250 mM KCl, 1 mM tryptophan, 10 ug yeast RNA, 37 C, 20 min. Pull-down: 20 mM Tris-HCl pH 8.0, 6 mM MgCl2, 2 mM DTT, 100 mM …
T1 sequence: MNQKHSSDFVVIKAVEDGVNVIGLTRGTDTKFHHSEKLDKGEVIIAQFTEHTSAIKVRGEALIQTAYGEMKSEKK

[2] = molecular target: T1, TRAP (trp RNA binding Attenuation Protein), WT (Bacillus subtilis); assay: filter binding; conditions: Filter binding: 16 mM Tris pH 8.0, 250 mM KCl, 1 mM tryptophan, 10 ug yeast RNA, 37 C, 20 min. Pull-down: 20 mM Tris-HCl pH 8.0, 6 mM MgCl2, 2 mM DTT, 100 mM …
[3] = molecular target: T2, TRAP-AT = 1:1 complex, (N20C)1(WT)10 TRAP 11mer crosslinked with BMOE to one D7C AT trimer N20C;D7C (Bacillus subtilis) (UniProt P19466+P19466+O31466); assay: filter binding; conditions: Filter binding: 16 mM Tris pH 8.0, 250 mM KCl, 1 mM tryptophan, 10 ug yeast RNA, 37 C, 20 min. Pull-down: 20 mM Tris-HCl pH 8.0, 6 mM MgCl2, 2 mM DTT, 100 mM …
T2 sequence 1: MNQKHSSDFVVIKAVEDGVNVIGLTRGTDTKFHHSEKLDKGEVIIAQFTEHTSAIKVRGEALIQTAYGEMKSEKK
T2 sequence 2: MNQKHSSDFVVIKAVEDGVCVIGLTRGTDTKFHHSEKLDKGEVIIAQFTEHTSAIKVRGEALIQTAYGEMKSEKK
T2 sequence 3: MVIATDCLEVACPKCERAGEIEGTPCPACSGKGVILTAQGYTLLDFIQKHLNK

[4] = molecular target: B2; assay: pull-down; limiting His-tagged N20C TRAP mixed with 50-fold excess WT TRAP, denatured in 5 M guanidine-HCl 1 h at room temperature, renatured by dialysis in 50 mM phosphate pH 8.0; hetero-11mers held on Ni agarose; conditions: both partners purified
[5] = molecular target: the molecule itself; assay: cross-linking; BMOE (0.04 mM, 8 Å sulfhydryl cross-linker); N20C TRAP 0.02 mM and/or D7C AT 0.08 mM; 1 mM tryptophan; PBS pH 7.2, 0.5 mM EDTA; 37°C 1 h; 15% SDS gel, Coomassie
[6] = molecular target: T3, trp RNA binding Attenuation Protein (TRAP), wild type, 11mer (B. subtilis) (UniProt P19466)
T3 sequence: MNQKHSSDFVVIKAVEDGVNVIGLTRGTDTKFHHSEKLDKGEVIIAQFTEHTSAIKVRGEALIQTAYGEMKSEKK

Molecule: Eco116 nascent trp leader RNA (~11 repeats exposed)
- binding signal [1]: 100 % TRAP bound

Molecule: GAGUUGAGUUGAGUUGAGUUGAGUUGAGUUGAGUUGAGUUGAGUUGAGUUGAGUU [(GAGUU)11 RNA]
- Kd [2]: 0.55 nM
- Kd [3]: 3.7 nM

Molecule: Δ9-11Eco116 nascent trp leader RNA (7 repeats exposed)
- binding signal [1]: 100 % TRAP bound

Molecule: Δ10-11Eco116 nascent trp leader RNA (8 repeats exposed)
- binding signal [1]: 100 % TRAP bound

- binding result [4]: binds
B1: trp RNA binding Attenuation Protein (TRAP), wild type, 11mer (natural protein, B. subtilis, UniProt P19466 1-75, looked up)
chain: MNQKHSSDFVVIKAVEDGVNVIGLTRGTDTKFHHSEKLDKGEVIIAQFTEHTSAIKVRGEALIQTAYGEMKSEKK
notes: 11 identical subunits of 75 amino acids in a ring; also called WT TRAP; TRAP 11mer; copies: 11

Molecule: B2
- binding result [5]: binds

- in vitro transcription attenuation, Eco116 template; percent of transcripts terminated when AT was added after TRAP had bound the nascent transcript (post) [6]: 80%
B3: Anti-TRAP (AT), wild type, trimer (natural protein)
chain: MVIATDDLEVACPKCERAGEIEGTPCPACSGKGVILTAQGYTLLDFIQKHLNK

B4: AT containing a Cys substitution at residue 7 (D7C AT) (natural protein, B. subtilis, UniProt O31466 1-53, looked up)
chain: MVIATDCLEVACPKCERAGEIEGTPCPACSGKGVILTAQGYTLLDFIQKHLNK
notes: Anti-TRAP (AT) of Bacillus subtilis with Asp7 replaced by Cys; source: purified as described by Chen and Gollnick (19)
- binding result [5]: binds
